In paper PMC4970216:

Substrate: C[C@]12CC[C@@H]3c4ccc(O)cc4CC[C@H]3[C@@H]1CC[C@@H]2O[C@@H]1O[C@H](C(=O)O)[C@@H](O)[C@H](O)[C@H]1O
Test: cells, lysate or membranes
Assay type: cell-based, Homo sapiens

B1: Organic anion transporting polypeptide (OATP) 1B1 (Homo sapiens) (protein)
chain: MDQNQHLNKTAEAQPSENKKTRYCNGLKMFLAALSLSFIAKTLGAIIMKSSIIHIERRFEISSSLVGFIDGSFEIGNLLVIVFVSYFGSKLHRPKLIGIGCFIMGIGGVLTALPHFFMGYYRYSKETNINSSENSTSTLSTCLINQILSLNRASPEIVGKGCLKESGSYMWIYVFMGNMLRGIGETPIVPLGLSYIDDFAKEGHSSLYLGILNAIAMIGPIIGFTLGSLFSKMYVDIGYVDLSTIRITPTDSRWVGAWWLNFLVSGLFSIISSIPFFFLPQTPNKPQKERKASLSLHVLETNDEKDQTANLTNQGKNITKNVTGFFQSFKSILTNPLYVMFVLLTLLQVSSYIGAFTYVFKYVEQQYGQPSSKANILLGVITIPIFASGMFLGGYIIKKFKLNTVGIAKFSCFTAVMSLSFYLLYFFILCENKSVAGLTMTYDGNNPVTSHRDVPLSYCNSDCNCDESQWEPVCGNNGITYISPCLAGCKSSSGNKKPIVFYNCSCLEVTGLQNRNYSAHLGECPRDDACTRKFYFFVAIQVLNLFFSALGGTSHVMLIVKIVQPELKSLALGFHSMVIRALGGILAPIYFGALIDTTCIKWSTNNCGTRGSCRTYNSTSFSRVYLGLSSMLRVSSLVLYIILIYAMKKKYQEKDINASENGSVMDEANLESLNKNKHFVPSAGADSETHC
Question: With B1 as the protein, how does the Km read?
Answer: The Km was 7.20 ± 0.57 µM.
